Data from patent US20030166571A1 (SYNVAX, published 2003).
Square brackets hold non-standard residues; d marks the D form. Ends that are not written are not given here. * marks the point of attachment. Phe(4-NO2) = N[C@@H](Cc1ccc([N+](=O)[O-])cc1)C(=O)O; Phe(4-SO3H) = N[C@@H](Cc1ccc(S(=O)(=O)O)cc1)C(=O)O; Trp(5-CN) = N#Cc1ccc2[nH]cc(C[C@H](N)C(=O)O)c2c1; Phe(4-F) = N[C@@H](Cc1ccc(F)cc1)C(=O)O; Phe(4-Me) = Cc1ccc(C[C@H](N)C(=O)O)cc1; hPhe = N[C@@H](CCc1ccccc1)C(=O)O; Phg = N[C@H](C(=O)O)c1ccccc1; Ac6c = NC1(C(=O)O)CCCCC1; Pentanoyl = CCCCC(=O)*

B1: VII-49-B (peptide)
peptide: Ac-R[hPhe][hPhe]RWR-NH2
SMILES: CC(=O)N[C@@H](CCCNC(=N)N)C(=O)N[C@@H](CCc1ccccc1)C(=O)N[C@@H](CCc1ccccc1)C(=O)N[C@@H](CCCNC(=N)N)C(=O)N[C@@H](Cc1c[nH]c2ccccc12)C(=O)N[C@@H](CCCNC(=N)N)C(N)=O
notes: also called Ac-Arg-hPhe-hPhe-Arg-Trp-Arg-NH2
B2: VII-7-B (peptide)
peptide: Pentanoyl-RYYRWR-NH2
SMILES: CCCCC(=O)N[C@@H](CCCNC(=N)N)C(=O)N[C@@H](Cc1ccc(O)cc1)C(=O)N[C@@H](Cc1ccc(O)cc1)C(=O)N[C@@H](CCCNC(=N)N)C(=O)N[C@@H](Cc1c[nH]c2ccccc12)C(=O)N[C@@H](CCCNC(=N)N)C(N)=O
notes: also called Pentanoyl-Arg-Tyr-Tyr-Arg-Trp-Arg-NH2; Pentanoyl-RYYRWR-NH2
B3: VII-17-B (peptide)
peptide: Ac-R[Phe(4-Me)][Phe(4-Me)]RWR-NH2
SMILES: CC(=O)N[C@@H](CCCNC(=N)N)C(=O)N[C@@H](Cc1ccc(C)cc1)C(=O)N[C@@H](Cc1ccc(C)cc1)C(=O)N[C@@H](CCCNC(=N)N)C(=O)N[C@@H](Cc1c[nH]c2ccccc12)C(=O)N[C@@H](CCCNC(=N)N)C(N)=O
notes: also called Ac-Arg-Phe(4-Me)-Phe(4-Me)-Arg-Trp-Arg-NH2
B4: VII-2-A (peptide)
peptide: {β‑Nva}-RYYRWR-NH2
notes: also called β-Nva-Arg-Tyr-Tyr-Arg-Trp-Arg-NH2
B5: VII-51-A (peptide)
peptide: Ac-RYYR[Trp(5-CN)]R-NH2
SMILES: CC(=O)N[C@@H](CCCNC(=N)N)C(=O)N[C@@H](Cc1ccc(O)cc1)C(=O)N[C@@H](Cc1ccc(O)cc1)C(=O)N[C@@H](CCCNC(=N)N)C(=O)N[C@@H](Cc1c[nH]c2ccc(C#N)cc12)C(=O)N[C@@H](CCCNC(=N)N)C(N)=O
notes: also called Ac-Arg-Tyr-Tyr-Arg-Trp(5-CN)-Arg-NH2
B6: VII-35-C (peptide)
peptide: Ac-R[Tyr(4-Me)]YRWR-NH2
notes: also called Ac-Arg-Tyr(4-Me)-Tyr-Arg-Trp-Arg-NH2
B7: VII-31-B (peptide)
peptide: Ac-R[Phe(4-F)]YRWR-NH2
SMILES: CC(=O)N[C@@H](CCCNC(=N)N)C(=O)N[C@@H](Cc1ccc(F)cc1)C(=O)N[C@@H](Cc1ccc(O)cc1)C(=O)N[C@@H](CCCNC(=N)N)C(=O)N[C@@H](Cc1c[nH]c2ccccc12)C(=O)N[C@@H](CCCNC(=N)N)C(N)=O
notes: also called Ac-Arg-Phe(4-F)-Tyr-Arg-Trp-Arg-NH2
B8: VII-4-B (peptide)
peptide: [Ac6c]RYYRWR-NH2
modifications: N-terminus assumed
SMILES: N=C(N)NCCC[C@H](NC(=O)[C@H](Cc1c[nH]c2ccccc12)NC(=O)[C@H](CCCNC(=N)N)NC(=O)[C@H](Cc1ccc(O)cc1)NC(=O)[C@H](Cc1ccc(O)cc1)NC(=O)[C@H](CCCNC(=N)N)NC(=O)C1(N)CCCCC1)C(N)=O
notes: also called 1-aminocyclohexanoyl-Arg-Tyr-Tyr-Arg-Trp-Arg-NH2
B9: VII-23-B (peptide)
peptide: Ac-R[Phe(4-NO2)]YRWR-NH2
SMILES: CC(=O)N[C@@H](CCCNC(=N)N)C(=O)N[C@@H](Cc1ccc([N+](=O)[O-])cc1)C(=O)N[C@@H](Cc1ccc(O)cc1)C(=O)N[C@@H](CCCNC(=N)N)C(=O)N[C@@H](Cc1c[nH]c2ccccc12)C(=O)N[C@@H](CCCNC(=N)N)C(N)=O
notes: also called Ac-Arg-Phe(NO2)-Tyr-Arg-Trp-Arg-NH2
B10: VII-27-B (peptide)
peptide: Ac-R[Phe(4-SO3H)]YRWR-NH2
notes: also called Ac-Arg-Phe(SO3H)-Tyr-Arg-Trp-Arg-NH2
B11: VII-13-B (peptide)
peptide: Ac-RY[Phg]RWR-NH2
SMILES: CC(=O)N[C@@H](CCCNC(=N)N)C(=O)N[C@@H](Cc1ccc(O)cc1)C(=O)N[C@H](C(=O)N[C@@H](CCCNC(=N)N)C(=O)N[C@@H](Cc1c[nH]c2ccccc12)C(=O)N[C@@H](CCCNC(=N)N)C(N)=O)c1ccccc1
notes: also called Ac-Arg-Tyr-Phg-Arg-Trp-Arg-NH2
B12: VII-61-B (peptide)
peptide: Ac-RY[Phe(4-F)]RWR-NH2
SMILES: CC(=O)N[C@@H](CCCNC(=N)N)C(=O)N[C@@H](Cc1ccc(O)cc1)C(=O)N[C@@H](Cc1ccc(F)cc1)C(=O)N[C@@H](CCCNC(=N)N)C(=O)N[C@@H](Cc1c[nH]c2ccccc12)C(=O)N[C@@H](CCCNC(=N)N)C(N)=O
notes: also called Ac-Arg-Tyr-Phe(4-F)-Arg-Trp-Arg-NH2

Legend:
[1] = target: T1, human ORL-1 receptor (opioid receptor like 1) (human, UniProt P41146 1-370); experiment: cell-based or functional assay
[2] = target: T1, human ORL-1 receptor (opioid receptor …); experiment: [3H]nociceptin displacement, membranes of CHO cells transfected with human ORL-1; Ki=IC50/(1+L/Kd)
Procedure: Receptor binding studies were conducted on human ORL1 (opiate receptor like 1) transfected into Chinese hamster ovary (CHO) cells using each of the hexapeptide analog compounds of Table 3. All the compounds were evaluated for binding affinities. […] The data shown in Table 5 represents the average±SEM of at least two experiments conducted in triplicate.
Cells are removed from the plates by scraping with a rubber policeman, and then homogenized in Tris buffer using a Polytron homogenizer. Following this homogenization step, the cellular mixture is centrifuged once and washed by an additional centrifugation at 40,000×g for 15 min. The pellet formed during the centrifugation is re-suspended in 50 mM Tris, pH 7.5. […] Samples of the suspension are then filtered over glass fiber filters using a Wallac cell harvester.
For the data in Table 5, binding was conducted as described above. IC₅₀ values and Hill coefficients were determined using the curve-fitting program Prism. K₁ values were calculated using the equation K₁=IC₅₀/(1+[L]/Kd). […] The data in Table 5 represent the average±SEM of at least two experiments conducted in triplicate.

T1 sequence (P41146 whole entry): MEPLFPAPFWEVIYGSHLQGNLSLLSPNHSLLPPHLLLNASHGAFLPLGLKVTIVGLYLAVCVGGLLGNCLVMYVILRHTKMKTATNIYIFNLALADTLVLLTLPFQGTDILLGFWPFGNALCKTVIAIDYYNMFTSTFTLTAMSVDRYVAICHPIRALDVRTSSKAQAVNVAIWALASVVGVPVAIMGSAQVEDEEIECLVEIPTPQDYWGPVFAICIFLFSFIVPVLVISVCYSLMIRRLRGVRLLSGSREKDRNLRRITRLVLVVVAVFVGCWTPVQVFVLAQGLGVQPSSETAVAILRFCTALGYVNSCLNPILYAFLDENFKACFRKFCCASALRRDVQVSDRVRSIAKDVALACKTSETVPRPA

| Binder | % Stimulation of [35S]GTPγS binding [1] [%] | Ki [2] [nM] | EC50 (nM) of stimulation of [35S]GTPγS binding [1] [nM] |
| --- | --- | --- | --- |
| B1 | < 20 | 5.49 |  |
| B2 | < 20 | 0.16 |  |
| B3 | < 20 | 10.1 |  |
| B4 | < 20 | 11.8 |  |
| B5 | 49.1 | 0.3 | 156 |
| B6 | 52.1 | 0.43 | 51.1 |
| B7 | 54.4 | 0.52 | 35.7 |
| B8 | < 20 | 9.25 |  |
| B9 | 56.6 | 0.44 | 15.7 |
| B10 |  | 155 |  |
| B11 |  | 27 |  |
| B12 | 70.4 | 0.05 | 2 |
